Assay [1] concerns the target recombinant core spidroin eADF4(C16) (Araneus diadematus (engineered mimic of its fibroin 4 core domain)). The assay is described as follows: turbidity at 340 nm (fibrillization kinetics), global fit with AmyloFit; 10-40 uM eADF4(C16) in 150 mM NaF, 20 C, without and with 0.5% (w/w) pre-formed seeds; secondary nucleation model, nc set to 2 and n2 to 1; monomers to fibrils.

Assay [2] has the same target. The experiment in a line: turbidity at 340 nm (fibrillization kinetics), global fit with AmyloFit; 10-40 uM eADF4(C16) in 150 mM Na2SO4, 20 C, without and with 0.5% (w/w) pre-formed seeds; secondary nucleation model, nc set to 2 and n2 to 1; monomers to fibrils.

Consider recombinant core spidroin eADF4(C16), for which, in assay [1], the k2 (rate constant of secondary nucleation) was determined as 0.598 M⁻¹ s⁻¹; the k+ (rate constant of fibril elongation) was 7.26e+07 M⁻¹ s⁻¹; the k+k2 (elongation x secondary nucleation, combined rate parameter) turned out to be 3.34e+07 M^−2 s^−2; the k+kn (elongation x primary nucleation, combined rate parameter) came out at 420000 M^−2 s^−2. Further, in assay [1], the kn (rate constant of primary nucleation) was determined as 0.00585 M⁻¹ s⁻¹. Besides, in assay [2], the k2 (rate constant of secondary nucleation) came to 7.08 M⁻¹ s⁻¹; the k+ (rate constant of fibril elongation) came to 2.85e+07 M⁻¹ s⁻¹; the k+k2 (elongation x secondary nucleation, combined rate parameter) was determined as 9.04e+07 M^−2 s^−2; the k+kn (elongation x primary nucleation, combined rate parameter) was 1.35e+06 M^−2 s^−2. Besides, the kn (rate constant of primary nucleation) in assay [2] amounted to 1.42 M⁻¹ s⁻¹.

The values above are taken from PMC10661072.
